The record followed here is PMC4621360 (2015).

The assay has as its target FSFG-K (single FSFG site) (Saccharomyces cerevisiae, UniProt P14907). The assay is described as follows: NMR.

B1: Kap95 (protein)
chain: STAEFAQLLENSILSPDQNIRLTSETQLKKLSNDNFLQFAGLSSQVLIDENTKLEGRILAALTLKNELVSKDSVKTQQFAQRWITQVSPEAKNQIKTNALTALVSIEPRIANAAAQLIAAIADIELPHGAWPELMKIMVDNTGAEQPENVKRASLLALGYMCESADPQSQALVSSSNNILIAIVQGAQSTETSKAVRLAALNALADSLIFIKNNMEREGERNYLMQVVCEATQAEDIEVQAAAFGCLCKIMSLYYTFMKPYMEQALYALTIATMKSPNDKVASMTVEFWSTICEEEIDIAYELAQFPQSPLQSYNFALSSIKDVVPNLLNLLTRQNEDPEDDDWNVSMSAGACLQLFAQNCGNHILEPVLEFVEQNITADNWRNREAAVMAFGSIMDGPDKVQRTYYVHQALPSILNLMNDQSLQVKETTAWCIGRIADSVAESIDPQQHLPGVVQACLIGLQDHPKVATNCSWTIINLVEQLAEATPSPIYNFYPALVDGLIGAANRIDNEFNARASAFSALTTMVEYATDTVAETSASISTFVMDKLGQTMSVDENQLTLEDAQSLQELQSNILTVLAAVIRKSPSSVEPVADMLMGLFFRLLEKKDSAFIEDDVFYAISALAASLGKGFEKYLETFSPYLLKALNQVDSPVSITAVGFIADISNSLEEDFRRYSDAMMNVLAQMISNPNARRELKPAVLSVFGDIASNIGADFIPYLNDIMALCVAAQNTKPENGTLEALDYQIKVLEAVLDAYVGIVAGLHDKPEALFPYVGTIFQFIAQVAEDPQLYSEDATSRAAVGLIGDIAAMFPDGSIKQFYGQDWVIDYIKRTRSGQLFSQATKDTARWAREQQKRQLSL
Turning to B1, the Kd (as a rule, the concentration at which binding is half-saturated) is over 216 µM.
